Measured values as given in patent US20250002562A1 (Scripps Research, published 2025).

Target: SARS-CoV2 RBD antigen (Genscript) (SARS-CoV2, UniProt P0DTC2 319-541)
Experiment: ELISA on RBD antigen, human IgG at 1 µg/mL, O.D. 450 nm

| Binder | binding result |
| --- | --- |
| SKAI-DS1 (antibody, V domains shown, also called SKAI-DS1 human IgG antibody) VH: EVQLLESGGGLVQTGGSLRLSCAASGFTFSDYAMSWVRQAPGKGLEWVSWIYSNDGNKYYADSVKGRFTISRDNSKNTLYLQMNSLRAEDTAVYYCARFPVPSWRNTWSSYDAMDVWGQGTLVTV VL: QSVLTQPPSASGTPGRRVTISCTGSSSNIGSNYVSWYQQLPGTAPKLLIYSDSNRPSGVPDRFSGSKSGTSASLAISGLRSEDEADYYCGTWDASLSGYVFGGGTKLTVL | binds |
| SKAI-DS15 (antibody, V domains shown, also called SKAI-DS15 human IgG antibody) VH: EVQLLESGGGLVQPGGSLRLSCAASGFTFSDYDMSWVRQAPGKGLEWVSMIYSGSSSKYYADSVKGRFTISRDNSKNTLYLQMNSLRAEDTAVYYCARVTGTCHSGSCYYSDAMDVWGQGTLVTV VL: QSVLTQPPSASGTPGQRVTISCSGSSSNIGSNDVNWYQQLPGTAPKLLIYDDSNRPSGVPDRFSGSKSGTSASLAISGLRSEDEADYYCGAWDDSLSGYVFGGGTKLTVL | no binding (tested: 1 µg/mL) |
| SKAI-DS3 (antibody, V domains shown, also called SKAI-DS3 human IgG antibody) VH: EVQLLESGGGLVQPGGSLRLSCAASGFTFSDYSMSWVRQAPGKGLEWVSAISSDSSSTYYADSVKGRFTISRDNSENTLYLQMNSLRAEDTAVYYCAKAILRCIPLGCYYADAMDVWGQGTLVTV VL: QSVLTQPPSASGTPGQRVTISCTGSSSNIGSNDVTWYQQLPGTAPKLLIYADSKRPSGVPDRFSGSKSGTSASLAISGLRSEDEADYYCGAWDYSLSAYVFGGGTKLTVL | no binding (tested: 1 µg/mL) |
| SKAI-DS66 (antibody, V domains shown, also called SKAI-DS66 human IgG antibody) VH: EVQLLESGGGLVQPGGSLRLSCAASGFTFSDYAMSWVRQAPGKGLEWVSAIYPGGGSTYYADSVKGRFTISRDNSKNTLYLQMNSLRAEDTAVYYCARNLFGFDYWGQGTLVTV VL: QSVLTQPPSASGTPGQRVTISCTGSSSNIGSNAVYWYQQLPGTAPKLLIYDDSNRPSGVPDRFSGSKSGTSASLAISGLRSEDEADYYCGSWDDSLSAYVFGGGTKLTVL | binds |
| SKAI-DS64 (antibody, V domains shown, also called SKAI-DS64 human IgG antibody) VH: EVQLLESGGGLVQPGGSLRLSCAASGFTFSDYSMSWVRQAPGKGLEWVSGIYHSDGSKYYADSVKGRFTISRDNSKNTLYLQMNSLRAEDTAVYYCARFDPVFDYWGQGTLVTV VL: QSVLTQPPSASGTPGQRVTISCSGSSSNIGSNAVSWYQQLPGTAPKLLIYDNNHRPSGVPDRFSGSKSGTSASLAISGLRSEDEADYYCGSWDDSLNAYVFGGGTKLTVL | binds |
